How the values were obtained:
[1] = target: DS-Cav1-foldon-I53-50 nanostructure, 100% valency (respiratory syncytial virus (RSV)); assay: SPR, D25 immobilised, antigen at 50 nM heat-stressed at 70 °C for 1 h (FIG. 10)
[2] = target: DS-Cav1-foldon-I53-50A trimer (respiratory syncytial virus (RSV)); assay: as above

Substance: D25 monoclonal antibody
- percent of binding signal retained after 70 °C for 1 hour [1]: 80%
- percent of binding signal retained after 70 °C for 1 hour [2]: 50%
